In PMC9637899:
“And” between values parts separate entries of the source, which are not always exact repeats. Equal values may be shown once.

Legend:
[1] = molecular target: ElpB_(182–378) (B. burgdorferi) (UniProt H7C7R2); experiment: SPR; Elp truncation amine-coupled to a CMD200 chip; multicycle twofold injection series of C1s enzyme or activated C1s–CCP1–CCP2–SP constructs from 200 nM; HBS-T Ca2+ (10 mM Hepes pH 7.3, 140 mM NaCl, 0.005% Tween-20, 5 mM CaCl2), 30 ul/min; K_(D, kin) from a kinetic and K_(D, ss) from a steady-state 1:1 (Langmuir) fit; triplicate
[2] = molecular target: ElpQ_(181–343) (B. burgdorferi); experiment: as above
[3] = molecular target: activated c-Myc-C1s–CCP1–CCP2–SP_(S632A) (human) (UniProt P09871); experiment: AlphaScreen or HTRF; competition: 50 nM GST-ElpQ on glutathione donor beads and 500 nM activated c-Myc-C1s–CCP1–CCP2–SP_(S632A) on anti-c-Myc acceptor beads, 12-point twofold dilution of untagged competitor; HBS-T Ca2+, 1 h at room temperature; IC50 taken to approximate KD (Cheng–Prusoff)
[4] = molecular target: activated C1s–CCP1–CCP2–SP (human) (UniProt P09871)
[5] = molecular target: ElpB_(111–378) (B. burgdorferi); experiment: SPR; Elp truncation amine-coupled to a CMD200 chip; multicycle twofold injection series of C1s enzyme or activated C1s–CCP1–CCP2–SP constructs from 200 nM; HBS-T Ca2+ (10 mM Hepes pH 7.3, 140 mM NaCl, 0.005% Tween-20, 5 mM CaCl2), 30 ul/min; K_(D, kin) from a kinetic and K_(D, ss) from a steady-state 1:1 (Langmuir) fit; triplicate

activated c-Myc-C1s–CCP1–CCP2–SP_(S632A) (human), sequence (P09871 16-688 S632A): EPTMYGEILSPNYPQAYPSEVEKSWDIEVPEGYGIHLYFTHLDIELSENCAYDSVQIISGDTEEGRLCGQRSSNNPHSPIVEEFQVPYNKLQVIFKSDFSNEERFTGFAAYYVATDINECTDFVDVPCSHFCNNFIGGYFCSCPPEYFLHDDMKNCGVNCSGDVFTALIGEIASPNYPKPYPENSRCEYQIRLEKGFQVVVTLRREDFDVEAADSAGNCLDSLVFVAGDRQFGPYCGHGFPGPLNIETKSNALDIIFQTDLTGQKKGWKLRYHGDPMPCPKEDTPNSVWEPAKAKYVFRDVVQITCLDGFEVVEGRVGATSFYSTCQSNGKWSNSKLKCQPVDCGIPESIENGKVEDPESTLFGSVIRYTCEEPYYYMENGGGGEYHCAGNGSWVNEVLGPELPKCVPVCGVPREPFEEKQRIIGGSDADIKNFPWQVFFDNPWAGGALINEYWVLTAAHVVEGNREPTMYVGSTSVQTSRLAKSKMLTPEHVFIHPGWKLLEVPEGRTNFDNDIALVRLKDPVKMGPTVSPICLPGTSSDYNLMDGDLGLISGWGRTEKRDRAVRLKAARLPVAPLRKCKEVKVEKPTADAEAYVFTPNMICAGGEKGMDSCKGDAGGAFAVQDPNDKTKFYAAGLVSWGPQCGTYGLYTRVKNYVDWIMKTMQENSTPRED
activated C1s–CCP1–CCP2–SP (human), sequence (P09871 292-688): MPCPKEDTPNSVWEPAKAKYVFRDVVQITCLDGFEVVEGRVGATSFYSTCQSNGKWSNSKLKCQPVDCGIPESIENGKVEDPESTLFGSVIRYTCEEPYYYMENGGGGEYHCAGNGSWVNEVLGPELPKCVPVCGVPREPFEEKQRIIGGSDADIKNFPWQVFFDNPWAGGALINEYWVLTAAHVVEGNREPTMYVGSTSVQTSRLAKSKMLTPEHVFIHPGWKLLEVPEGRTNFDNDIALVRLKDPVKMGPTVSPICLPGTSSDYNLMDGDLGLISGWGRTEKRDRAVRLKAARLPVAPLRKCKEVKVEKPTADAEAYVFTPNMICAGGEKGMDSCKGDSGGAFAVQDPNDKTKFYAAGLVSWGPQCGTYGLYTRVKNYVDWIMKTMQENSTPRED

Row | Substance | Kd [2] | Kd [3] [nM] | further results
1 | C1s CCP1–CCP2–SP CCPE (from UniProt P09871) (domain or fragment) | 370 nM |  | Kd [1]: 570 nM
2 | ElpB_(182–378) (from UniProt H7C7R2 182-378) (domain or fragment) |  | 45 | 
3 | ElpQ_(19–343) (natural protein) |  | 190 | 
4 | ElpQ_(181–343) (domain or fragment) |  | 110 | IC50 of inhibition of C4 cleavage by 6.25 nM activated C1s–CCP1–CCP2–SP, SDS-PAGE densitometry, ElpQ (181–343) 25 to 0.20 uM; blocks m9 with m17 [4]: 3600 nM
5 | activated C1s–CCP1–CCP2–SP (from UniProt P09871 292-688) (domain or fragment) | 210 nM |  | 
6 | complement component C4 (natural protein) |  | 740 | 
7 | purified full-length activated C1s enzyme | 17 nM and 31 nM |  | Kd [5]: 21 nM and 35 nM; Kd [1]: 47 nM and 85 nM
